The supplement of paper PMC12042874
± gives the uncertainty stated by the source.

Assay: amyloid nucleation score (Sup35N fusion, yeast selection) (log enrichment); library NNK2; higher = more nucleation; inactive = no reads after selection
In short: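 Using DiMSum, nucleation scores were taken as the log enrichment of output over input reads, centred on the mode score of non-aggregating sequences. The input and output reads came from Illumina sequencing of plasmid inserts, with sequences under 100 input reads excluded. The yeast were psi-negative, expressed Sup35N fused to peptides of 20 random codons, were induced with 100 μM copper sulfate for 24 hours, and were grown 7 days at 30°C on medium lacking adenine and uracil.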

Row | Substance | amyloid nucleation score
1 | GRDFCFEVSHYVVMFAFLRD | 0.114 ± 0.63
2 | RATRLIRGTWYKKLKRVARI | 1.32 ± 0.18
3 | TIFHLRDSYINHAKLSSLHG | inactive
4 | NQAYR | 0.12 ± 0.43
5 | LGDVYMWIFKKLLWVNHWDV | -0.033 ± 0.44
6 | QNAMGTSVDYNVNFVYVGNL | 3.38 ± 0.089
7 | LRDLLLVRTSSCDSYMWLSP | -0.254 ± 1
8 | TDNVIMVERDRASKVCERKG | 0.433 ± 0.54
9 | FSLLD | -0.264 ± 0.45
10 | RRYMSVDSK | inactive
11 | PQSWIVHRTIVHGSLGSCFP | -0.4 ± 0.3
12 | IVSIT | -0.271 ± 0.24
13 | FEGNGCSILWLSFCRWAQ | 0.98 ± 0.4
14 | SWNMIQSTIFLPCNLGDYTV | 5.678 ± 0.048
15 | NNKLSRV | -0.661 ± 1.1
16 | PPHRAYGILMMNTRRTSSIT | 0.604 ± 0.37
17 | SWHPRKRWNVCERF | 0.273 ± 0.49
18 | QLMDGSRSLFMALRRRFLLV | 0.691 ± 0.74
19 | VDSYHGYTDRNALSFLCSLV | 0.342 ± 0.23
20 | IKLQMSLATAQIETGTHGLH | 3.51 ± 0.16
21 | KLAYIAMTVSITGFDPCAWD | 2.55 ± 0.068
22 | SGGHKWVYFASCISFLRPWR | -0.069 ± 0.55
23 | WHGKVGRTAWCLGMLFYDVR | 1.02 ± 0.2
24 | TRFTYCFVVRNLVTRNRPIS | -0.646 ± 0.22
25 | SSAGC | -1.23 ± 0.55

Row | Substance | amyloid nucleation score
26 | YRNCLPMGGNALS | -0.964 ± 1.1
27 | CVLQNWYSTSTPKSWLRGNV | 0.678 ± 0.41
28 | FIHRDGYSFDQVGFMGACF | 0.092 ± 1.1
29 | RTEDPKTDYVKRGKRKWRVW | -0.129 ± 1.1
30 | VFTVLYALSCLSFIFVTV | 4.04 ± 0.047
31 | SLMIHGHLFRIRVRSLRGRI | -0.714 ± 0.76
32 | LRLIDNYMGSSRMMS | inactive
33 | RLRNI | 0.399 ± 0.2
34 | RGVYKHSPHLIT | -0.127 ± 1.1
35 | VFLVHPTFSFKNRVCLNFVW | -0.081 ± 1.1
36 | VVPFIKTRCNPV | -0.829 ± 0.33
37 | HQRSDYV | 0.383 ± 0.74
38 | KTMNPYDFSLFIATIMKSLN | -0.476 ± 1.1
39 | VFSTTSLNV | -0.647 ± 0.34
40 | CIIVISFLTITWKCAEPELQ | inactive
41 | WRGLGVLYVSCVDSRVSSI | -1.73 ± 0.75
42 | THFSPMGY | -0.586 ± 1.1
43 | CWNACSLRLNDGAGDPGWRD | 0.36 ± 0.22
44 | HRCNMGLSWTGVYQRVGKSS | 0.757 ± 0.57
45 | KCNVMRQMRFMLPFTVIVVL | 0.204 ± 0.31
46 | NVAHGW | -0.322 ± 0.44
47 | CFDEFTLCKVLWNMFSTFLG | -0.707 ± 1.1
48 | DRTDVCWSSGHDHLDLCWMS | 0.273 ± 0.25
49 | LSIGSQAI | 0.501 ± 0.38
50 | SFIVRRFSSCLHLFGDSEGY | -0.098 ± 0.41

Row | Substance | amyloid nucleation score
51 | PSLRSSCCWNFRPP | 0.175 ± 0.42
52 | GVYICQFIAVISLSAQSLWY | -0.97 ± 1.1
53 | FSGFSLRSPTTRGGVCGKTV | 0.575 ± 0.47
54 | YIVACSWYSGLLGLVGYRRK | 7.884 ± 0.036
55 | QFGYRCTTPC | 0.522 ± 0.3
56 | FVINSCENVARTHRVCQLAM | -0.115 ± 0.37
57 | VIWHWVAGH | 5.71 ± 0.087
58 | LCRCNATRGGCCLFLGCFWL | 2.73 ± 0.09
59 | GCRRETEDVSGRLCCVVWSL | 0.206 ± 0.5
60 | MLANTYDSEPSRHRCVGKPI | 0.754 ± 0.44
61 | YMSATVRCIYSRLY | 3.05 ± 0.13
62 | NKRPSRTNLWIKALVRP | inactive
63 | ICKRIFGRYRYLSSEVDCVS | -1.54 ± 0.55
64 | RVFNLNKKMNFSTISG | -0.942 ± 1.1
65 | ACSDGVAMECKV | -0.429 ± 0.44
66 | VLSNKFI | inactive
67 | PPLYSFVQYMRGFANNVISG | 0.227 ± 0.49
68 | PYIEVY | 0.926 ± 0.52
69 | FFQQRCYVVFAIMTSSGADD | 0.864 ± 0.12
70 | GRLGSAPQKR | 0.686 ± 0.32
71 | CNIVRSYCLL | -0.937 ± 0.5
72 | SMSYDRWKAKS | -0.446 ± 0.48
73 | VGTPEHKLFYGLCVALGQFQ | inactive
74 | LYDVAQDEPLVSRMGLFDPR | 3.46 ± 0.069
75 | HGSFAIMP | -0.529 ± 0.45

Row | Substance | amyloid nucleation score
76 | LNTSFLMV | -1.05 ± 0.49
77 | TYRIGYMNQCTSR | -0.215 ± 0.35
78 | IGSRVVYISRVLLKNWTLVT | -0.592 ± 0.76
79 | GVDFKVVTKSWIIYNYIIGM | 3.07 ± 0.064
80 | MKCWASPGWTQIQMEPKEGS | 0.064 ± 0.26
81 | HVRHGESLFFANQA | -0.038 ± 1.1
82 | ANCCLRTWVFCRSYCYIILF | -0.014 ± 0.8
83 | LDVYQ | -0.711 ± 0.64
84 | PMEWKPALPKTIVADARMRG | 0.48 ± 0.3
85 | AFNATIRNAC | -0.746 ± 0.62
86 | VRFIAR | inactive
87 | WSEHQGQPNRERWWSAAGEG | 0.984 ± 0.32
88 | SYLHGDNQLGLSGASFRSRW | inactive
89 | RDPVFIT | -1.44 ± 0.76
90 | YSAFHSMENQTRKMFMEPLP | -0.311 ± 0.79
91 | MFERW | -0.184 ± 0.56
92 | FTIHWRVGCTQWLEAVIGYM | 4.07 ± 0.1
93 | GHVHQNLMRLVNFSKKSTSL | 4.95 ± 0.055
94 | GIMSVGTAKWRDGQPSACRK | 0.996 ± 0.37
95 | RLDMYGLLINWSSVCLYNNI | 0.257 ± 0.21
96 | LKYIPRWVGTSLLQRKLCDF | -0.711 ± 1.1
97 | AHPMEQCKIL | 0.545 ± 0.41
98 | CLTTRTSGHNGYQRHDLI | inactive
99 | ICIVVVCDFCIYRMCATGTV | 0.735 ± 0.28
100 | NTRCQFSTIGHFAASHDRRD | 1.17 ± 0.21

Row | Substance | amyloid nucleation score
101 | YVTVTNGMI | -0.447 ± 0.61
102 | YSISNPYACFSNVQSFLLYN | 2.65 ± 0.15
103 | LMAFCKLQDRNKTPLSSALF | inactive
104 | NGVRYYFRVRGSMTRLNEAE | 0.276 ± 1
105 | SSTIGVGRSLFLLMFYRDLI | -1.44 ± 1
106 | LCENWSSLFITMKPYDFSFP | -0.43 ± 1.1
107 | VVRPVTLRFCTKGGMYSSVG | 0.407 ± 0.32
108 | AKVRLYVRGGSLLIGIRSVV | 0.555 ± 0.22
109 | YQMISDSPNINIFYGFYSET | inactive
110 | IFPLDQLQIFWLSLTMTMQL | -0.829 ± 1.1
111 | ANPQSKLLNVSFIGTVQGWV | 3.04 ± 0.12
112 | SRQRVMLLC | inactive
113 | GQCPIHMCGRNTYMK | 0.05 ± 0.32
114 | ILVYDEVTSYQDPYFS | -0.69 ± 0.63
115 | TSGRLR | 1.67 ± 0.38
116 | SVSRSYGEVRLEHTVLETCR | 0.619 ± 0.64
117 | MVVDFVVYITVCSFRFKQTF | 1.97 ± 0.18
118 | YYIQHHSF | 3.37 ± 0.082
119 | TVREKDYIEDFGVIWRKGIY | 0.791 ± 0.81
120 | VCIMSRYKLQLLKNSNGITH | 2.53 ± 0.16
121 | WHRVFKGLS | 0.658 ± 0.26
122 | AMNRFST | -0.975 ± 1.1
123 | VRGAIVQKALDCKSVDKSLE | inactive
124 | SIRSLMGVRSKNSYCRLTVR | 0.011 ± 0.79
125 | TFVLLRSW | 2.34 ± 0.13

Row | Substance | amyloid nucleation score
126 | WLGTRWRRGWGRLLKREGIL | 1.79 ± 0.13
127 | RAVTRVKHICLSATRSCDVE | 0.523 ± 0.21
128 | RMWDSSCSLRGMRLGVYRAR | 0.396 ± 0.53
129 | HILRQGQYGYVCCASASYEC | 7.312 ± 0.038
130 | MCFSPCCRWPRIRQEDQG | 0.531 ± 0.64
131 | NPSFNESFLSGSQKVQILMG | -0.509 ± 1.1
132 | SRIGLYIKCVVLDWRELNLS | 0.206 ± 0.55
133 | GPIYLWFSFKSRCQSSCHDV | -0.866 ± 0.48
134 | GLTASL | -0.375 ± 0.49
135 | CGMISLSSNVMSFALPFLYY | 0.824 ± 0.15
136 | RKSYPRIYVHPSWKCVGDRY | 0.066 ± 0.41
137 | YRSFCWEQ | -0.581 ± 0.56
138 | LYVRRYNWSHVGFHFCGLDT | -0.384 ± 0.79
139 | FARGNINLMVVFVFFDS | 5.766 ± 0.049
140 | TSCGCTW | 0.092 ± 1.1
141 | YMSGGVRKGPIAKALNFVRS | -0.854 ± 0.56
142 | ARCDCGFVRGGNCVVQYCLS | 7.529 ± 0.04
143 | LTKVWLPCAFVVSSFDQYQH | 0.764 ± 0.41
144 | CTRMRPPYLEHQSCDRLSSR | 0.241 ± 0.54
145 | LNLGREYVGLKD | 0.246 ± 0.24
146 | NLFLLYEAW | -0.155 ± 0.2
147 | RHRKMS | -0.496 ± 0.23
148 | DKYSWRKNGCGGWCVTTVVG | 0.573 ± 0.3
149 | YGQMVLRPFDTFVARQ | -1.05 ± 0.48
150 | WRKCKLFFTLYHLHTVELWI | -0.826 ± 0.49

Row | Substance | amyloid nucleation score
151 | YTYTQTR | 0.25 ± 0.48
152 | QEFLWWGREQLGVCCLGVGR | 2.88 ± 0.14
153 | TYCHYVADFLPLFRFRISGG | 3.1 ± 0.065
154 | HFFSSSSMRMYTSYSPLVMW | 0.215 ± 0.42
155 | WRMREWKWVEYCRHSVKDAL | 1.54 ± 0.31
156 | LSWYLTYTRLTSLVG | -0.097 ± 0.42
157 | RCGKCGLYS | 0.067 ± 0.5
158 | FRYRIYGGHLTINRIIYSLV | -0.702 ± 1.1
159 | MLNARELGETNKMLIVWVYL | 0.441 ± 0.22
160 | RSFMVRRFVNANIEIMIRRI | inactive
161 | YNIWL | 2.49 ± 0.12
162 | LVVLD | -0.262 ± 0.79
163 | GVKAASGSSPKRGFYDWVKH | 0.307 ± 0.64
164 | CLSFIILMWLDRNVGMVQI | -0.579 ± 0.49
165 | LFSYDDMGALRVNMDWFYNF | inactive
166 | VDSTFSHSSSFWELYRPTHL | -1.41 ± 1.1
167 | YCKRLKQAMPHY | -0.337 ± 0.63
168 | SSMIMTGFLYTYYGVIRVVD | inactive
169 | FYSTLFHFPYLVDQMYGPTI | -1.29 ± 1
170 | PRSQYRITYDYVCCRVMYKY | 0.392 ± 0.46
171 | CLLIGLAMGMVCSLPLGRIL | 0.123 ± 1
172 | LYIMDLFSTAWFDMLYVKGR | -1.45 ± 0.78
173 | GRCILGCHPATRTGMLRYFE | -0.087 ± 1
